Bridges are numbered along the chain shown (N, C = ends). Where no end group is shown, it is not given here. [ ]: non-standard residue; d: D form. fluorescein = fluorescein label; Ahx = NCCCCCC(=O)O
B1: DX-1002, Ac-GDLRDCQTTWPFTMMQCPNNDPGGGK-NH2 (peptide)
peptide: Ac-GDLRDCQTTWPFTMMQCPNNDPGGGK(fluorescein)-NH2
modifications: not fully specified (bridges); printed as Ac-GDLRDCQTTWPFTMMQCPNNDPGGGK-NH2; cysteine pairing not given here
B2: DX-1163, Ac-GDDSMCITWPFKRPWPCANDPGGGK-NH2 (peptide)
peptide: Ac-GDDSMCITWPFKRPWPCANDPGGGK(fluorescein)-NH2
modifications: not fully specified (bridges); printed as Ac-GDDSMCITWPFKRPWPCANDPGGGK-NH2; cysteine pairing not given here
B3: DX-1093, Ac-GSLWDCWLYDCEGNAPGGGK-NH2 (peptide)
peptide: Ac-GSLWDCWLYDCEGNAPGGGK(fluorescein)-NH2
modifications: disulfide 6-11 (inferred)
B4: DX-1165, Ac-GDNDGCTDTNWSWMFDCPPLDPGGGK-NH2 (peptide)
peptide: Ac-GDNDGCTDTNWSWMFDCPPLDPGGGK(fluorescein)-NH2
modifications: disulfide 6-17 (inferred)
B5: DX-1171, Ac-GSRSFCMDWPNHRDCDYSAPGGGK-NH2 (peptide)
peptide: Ac-GSRSFCMDWPNHRDCDYSAPGGGK(fluorescein)-NH2
modifications: not fully specified (bridges); printed as Ac-GSRSFCMDWPNHRDCDYSAPGGGK-NH2; cysteine pairing not given here
B6: DX-1167, Ac-GDSPYCKIALFQHFEVCAADDPGGGK-NH2 (peptide)
peptide: Ac-GDSPYCKIALFQHFEVCAADDPGGGK(fluorescein)-NH2
modifications: disulfide 6-17 (inferred)
B7: DX-1173, Ac-AGKWYCAWDPLVCEIFGTGGGK-NH2 (peptide)
peptide: Ac-AGKWYCAWDPLVCEIFGTGGGK(fluorescein)-NH2
modifications: disulfide 6-13 (inferred)
B8: DX-1089, Ac-GDSFCVTYIGTWETVCKRSDPGGGK-NH2 (peptide)
peptide: Ac-GDSFCVTYIGTWETVCKRSDPGGGK(fluorescein)-NH2
modifications: disulfide 5-16 (inferred)
B9: DX-1091, Ac-GDLRSCFTYYPFTTFSCSPADPGGGK-NH2 (peptide)
peptide: Ac-GDLRSCFTYYPFTTFSCSPADPGGGK(fluorescein)-NH2
modifications: disulfide 6-17 (inferred)
B10: DX-1175, Ac-AGWTTCHIYDWFCSSSGTGGGK-NH2 (peptide)
peptide: Ac-AGWTTCHIYDWFCSSSGTGGGK(fluorescein)-NH2
modifications: not fully specified (bridges); printed as Ac-AGWTTCHIYDWFCSSSGTGGGK-NH2; cysteine pairing not given here
B11: DX-1177, Ac-AGLEYCFYQWWGCPHAGTGGGK-NH2 (peptide)
peptide: Ac-AGLEYCFYQWWGCPHAGTGGGK(fluorescein)-NH2
modifications: not fully specified (bridges); printed as Ac-AGLEYCFYQWWGCPHAGTGGGK-NH2; cysteine pairing not given here
B12: DX-321 of Table 9, Ac-GDRNMCKFSWIRSPAFCARADPGGGK-NH2 (peptide)
peptide: Ac-GDRNMCKFSWIRSPAFCARADPGGGK(fluorescein)-NH2
modifications: disulfide 6-17 (inferred)
B13: DX-997, Ac-GDFSLCWIVDEDGTKWCLPDPGGGK-NH2 (peptide)
peptide: Ac-GDFSLCWIVDEDGTKWCLPDPGGGK(fluorescein)-NH2
modifications: disulfide 6-17 (inferred)
B14: DX-1179, Ac-AGYQFCTWDPIFCGWHGTGGGK-NH2 (peptide)
peptide: Ac-AGYQFCTWDPIFCGWHGTGGGK(fluorescein)-NH2
modifications: not fully specified (bridges); printed as Ac-AGYQFCTWDPIFCGWHGTGGGK-NH2; cysteine pairing not given here
B15: phage isolate displaying WKVCDHFFCLSP (SEQ ID NO: 242) (peptide)
chain: WKVCDHFFCLSP
modifications: not fully specified (bridges); cysteine pairing not given here
notes: Whole phage in the ELISA; not shown: protein III of M13 phage; the display peptide stands at its amino terminus
B16: phage isolate displaying DWDCVTRWANRDQQCWAL (SEQ ID NO: 248) (peptide)
chain: DWDCVTRWANRDQQCWAL
modifications: not fully specified (bridges); cysteine pairing not given here
notes: as for B15
B17: phage isolate displaying FRNCEPWMLRFGCNPR (SEQ ID NO: 244) (peptide)
chain: FRNCEPWMLRFGCNPR
modifications: not fully specified (bridges); cysteine pairing not given here
notes: as for B15
B18: phage isolate displaying RNMCKFSWIRSPAFCARADP (SEQ ID NO: 251) (peptide)
chain: RNMCKFSWIRSPAFCARADP
modifications: not fully specified (bridges); cysteine pairing not given here
notes: as for B15
B19: phage isolate displaying DWDCVTDWANRHQHCWAL (SEQ ID NO: 249) (peptide)
chain: DWDCVTDWANRHQHCWAL
modifications: not fully specified (bridges); cysteine pairing not given here
notes: as for B15
B20: phage isolate displaying NHGCWHFSCIWD (SEQ ID NO: 243) (peptide)
chain: NHGCWHFSCIWD
modifications: not fully specified (bridges); cysteine pairing not given here
notes: as for B15
B21: phage isolate displaying DWQCVKDWANRRRGCMAD (SEQ ID NO: 250) (peptide)
chain: DWQCVKDWANRRRGCMAD
modifications: not fully specified (bridges); cysteine pairing not given here
notes: as for B15
B22: phage isolate displaying VAWCTIFLCLDV (SEQ ID NO: 239) (peptide)
chain: VAWCTIFLCLDV
modifications: not fully specified (bridges); cysteine pairing not given here
notes: Whole phage in the ELISA; the constant phage residues that flank the display peptide are not spelled out for the phage construct; not shown: protein III of M13 phage; the display peptide stands at its amino terminus
B23: phage isolate displaying FKICDQWFCLMP (SEQ ID NO: 240) (peptide)
chain: FKICDQWFCLMP
modifications: not fully specified (bridges); cysteine pairing not given here
notes: as for B15
B24: phage isolate displaying HVGCNNALCMQY (SEQ ID NO: 241) (peptide)
chain: HVGCNNALCMQY
modifications: not fully specified (bridges); cysteine pairing not given here
notes: as for B15
B25: phage isolate displaying ADFCEGKDMIDWVYCRLY (SEQ ID NO: 245) (peptide)
chain: ADFCEGKDMIDWVYCRLY
modifications: not fully specified (bridges); cysteine pairing not given here
notes: as for B15
B26: phage isolate displaying FWFCDRIAWYPQHLCEFLD (SEQ ID NO: 246) (peptide)
chain: FWFCDRIAWYPQHLCEFLD
modifications: not fully specified (bridges); cysteine pairing not given here
notes: as for B15
B27: DX-317, Ac-AEGTGDDWDCVTDWANRHQHCWALDPE-X-K-NH2 (peptide)
peptide: Ac-AEGTGDDWDCVTDWANRHQHCWALDPE[Ahx]K(fluorescein)-NH2
modifications: disulfide 10-21
B28: DX-232, Ac-AEGTGSVAWCTIFLCLDVAPEGGGK-NH2 (peptide)
peptide: Ac-AEGTGSVAWCTIFLCLDVAPEGGGK-NH2
modifications: not fully specified (bridges); printed as Ac-AEGTGSVAWCTIFLCLDVAPEGGGK-NH2; also: C-terminal Lys: fluorescein or coupled to NHS-Sepharose
notes: Putative disulfide between the two Cys
B29: DX-295, Ac-AEGTGSFKICDQWFCLMPAPE-X-K-NH2 (peptide)
peptide: Ac-AEGTGSFKICDQWFCLMPAPE[Ahx]K(fluorescein)-NH2
modifications: disulfide 10-15

molecular target: T1, human serum albumin (HSA) (human, UniProt P02768 25-609); assay: fluorescence anisotropy, fluorescein-labelled peptide, PBS
T1 construct: also called caprylate-biotinylated-HSA
Experimental: (§1) Affinity determinations were made by first labeling polypeptides on the C-terminal end with NHS-fluorescein. Fluorescence anisotropy measurements were performed in 384-well microplates in a volume of 10 μl in binding buffer using a Tecan Polarion fluorescence polarization plate reader. The concentration of fluorescein labeled peptide was held constant (20 nM), and the concentration of HSA was varied. For pH 6.2, 7.1, and 7.4 binding conditions, a 3 mM phosphate, 0.01% Tween-20 buffer was used. For pH 9.1 binding conditions, a 3 mM sodium bicarbonate buffer, 0.01% Tween-20 nonionic detergent buffer was used. Once NaCl was added to any of these buffers, their pH was adjusted again to achieve the original pH. The binding mixtures were equilibrated for 10 minutes in the microplate at 30° C. prior to performing the measurement. The observed change in anisotropy was fit to the equation below via nonlinear regression to obtain the apparent KD. This equation assumes that the peptide and HSA form a reversible complex with 1:1 stoichiometry.
Selected HSA binding polypeptides from these additional library selections were synthesized, fluorescein-labeled as in Example 1, and tested to determine an apparent KD for HSA in PBS. The polypeptides were synthesized to include an acetylated N-terminal dipeptide and a C-terminal dipeptide corresponding to the constant flanking amino acids immediately adjacent the display peptide as expressed on phage in the respective phage display libraries. The polypeptides were also synthesized with a C-terminal -Gly-Gly-Gly-Lys (SEQ ID NO: 24). The terminal Lys residue was amidated.

Row | Binder | Kd [µM]
1 | B1 | 4
2 | B2 | 42
3 | B3 | > 10
4 | B4 | > 10
5 | B5 | 165
6 | B6 | > 10
7 | B7 | > 10
8 | B8 | > 10
9 | B9 | > 10
10 | B10 | 30
11 | B11 | 153
12 | B12 | > 10
13 | B13 | > 10
14 | B14 | 185

molecular target: T1, human serum albumin (HSA); assay: phage ELISA on immobilised caprylate-HSA, HRP anti-M13 antibody
Experimental: Phage were selected as described below from a pool of three phage libraries (TN6/6, TN10/9, TN12/1). Phage were tested for ability to bind to HSA an in ELISA format using caprylate-bound HSA, which had been passively immobilized on the surface of wells of a microtiter assay plate. Binding of phage to immobilized HSA was detected by adding HRP-conjugated anti-M13 antibody. Following addition of TMB substrate, the absorbance at 620 nm was read with an automated plate reader. Phage bound to HSA is shown by diagonal striped bars; control wells (no HSA) is shown by open bars.
For analysis of caprylate-HSA as a target, Immulon 2HB plates were prepared by the addition of 340 μl/well of caprylate-HSA at 5.6 μg/ml. The plates were incubated overnight at 4° C. The HSA-coated plates were then washed robotically with PBSCT six times (BioTek 404, BioTek Instruments). To account for plate binders, empty plates were also washed. An equal volume of each phage clone isolate was added to a plate well containing 70 μl PBSCT in both the target plate and the control plate. Plates were incubated for one hour at room temperature. The plates were washed seven times with PBSCT using the BioTek 404 apparatus. A 1:10,000 dilution of Pharmacia HRP-αM13 antibody conjugate in PBSCT was added to each well, at 100 μl/well. Plates were incubated for one hour. After incubation, plates were washed six times with PBSCT using the BioTek 404 apparatus. Following the wash, 100 μl of a 1:1 solution of the two-component TMB substrate solution was added to each well, and the plates incubated for 30 minutes. The plates were then read at 620 nm with an automatic BioTek plate reader.

Row | Binder | binding result
15 | B15 | binds
16 | B16 | binds
17 | B17 | binds
18 | B18 | binds
19 | B19 | binds
20 | B20 | binds
21 | B21 | binds
22 | B22 | binds
23 | B23 | binds
24 | B24 | binds
25 | B25 | binds
26 | B26 | binds

molecular target: T1, human serum albumin (HSA); assay: fluorescence anisotropy; pH 6.2, 0.14 M NaCl, no caprylate
Experimental: as §1

Row | Binder | Kd [µM]
27 | B27 | > 200
28 | B28 | 0.5
29 | B29 | > 100
